Measured values: the Immune Epitope Database (IEDB)
pKd: −log10 of the molar value.

Legend:
HLA-A*03:01 = test: IEDB peptide-MHC binding, purified MHC/direct/fluorescence; filed as Kd, often an IC50 or EC50 that approximates it; ≥ and ≤ were set here for values at or beyond the usual limits of such assays; settings: source organism: SARS-CoV1
HLA-A*11:01 = test: as above; settings: source organism: SARS-CoV1

| Sequence | pKd (HLA-A*03:01) | pKd (HLA-A*11:01) |
| --- | --- | --- |
| SSSLTSLLK | 6.56 | 7.29 |
| SSNVANYQK | 6.35 | 7.64 |
| ATNNVFRLK | 6.40 | 6.63 |
| ALRANSAVK | 6.71 | 5.75 |
| ATFSVPMEK | 6.58 | 7.55 |
| AVDPAKAYK | 5.78 | 6.91 |
| ATVVIGTSK | 6.63 | 7.52 |
| QLFKPLTKK | 6.67 | 6.63 |
| ASLPTTIAK | 7.25 | 7.72 |
| KLFAAETLK |  | 6.63 |
| ITCVVIPSK | 5.73 | 6.54 |
| KMQRMLLEK | 6.52 | 6.47 |
| LIGANYLGK | 6.00 | 5.83 |
| YIFFASFYY | 5.93 | 6.46 |
| GVAMPNLYK | 7.22 | 7.14 |
| AITTSNCAK | 6.19 | 7.27 |
| GTLSYDNLK | 6.44 | 7.32 |
| VTFQGKFKK | 6.49 | 7.04 |
| KCYGVSATK | 5.68 | 5.08 |
| VVYRGTTTY | 7.38 | 6.93 |
| RLYYDSMSY | 7.28 | 6.63 |
| AVLQSGFRK | 6.59 | 7.10 |
| KVIQPRVEK | 6.23 | 6.77 |
